These are literature values, as cited in publication PMC5490247.

What is called pKd is −log10 of the Kd, conventionally taken in molar units.

pKd: −log10 of the molar value. Where two headings read alike, the source gives them in different places.

The target in data set [1] is IL-6R (Homo sapiens) (UniProt P08887).
The target is the same in data set [2]. The source holds these as a separate data set.

UniProt P08887, sequence (P08887 20-355): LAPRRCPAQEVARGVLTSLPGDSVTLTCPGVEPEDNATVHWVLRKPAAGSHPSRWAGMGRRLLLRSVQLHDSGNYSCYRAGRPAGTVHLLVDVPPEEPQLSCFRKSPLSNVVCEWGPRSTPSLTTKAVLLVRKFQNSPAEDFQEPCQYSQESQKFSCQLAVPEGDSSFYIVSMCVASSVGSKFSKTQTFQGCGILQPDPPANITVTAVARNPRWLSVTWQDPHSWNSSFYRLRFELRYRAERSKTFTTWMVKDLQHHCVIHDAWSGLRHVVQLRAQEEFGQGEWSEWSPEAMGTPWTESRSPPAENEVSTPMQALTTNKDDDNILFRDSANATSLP

Take IL-6 (from UniProt P05231): the pKd with IL-6R (Homo sapiens) [1] was 9.00. Regarding Tocilizumab, the pKd with IL-6R (Homo sapiens) [2] is 8.60.
